The values below come from patent US20170312350A1 (IMMATICS BIOTECHNOLOGIES, published 2017).

This assay deals with MHC/IGF2BP3-001 complex on IGF2BP3-001-loaded target cells (human). Kind of assay: cell-based or functional assay.

B1: TCR R10P1A7 (TCR, V domains shown)
V domain 1: GEDVEQSLFLSVREGDSSVINCTYTDSSSTYLYWYKQEPGAGLQLLTYIFSNMDMKQDQRLTVLLNKKDKHLSLRIADTQTGDSAIYFCAESKETRLMFGDGTQLVVKP
V domain 2: GAVVSQHPSWVICKSGTSVKIECRSLDFQATTMFWYRQFPKQSLMLMATSNEGSKATYEQGVEKDKFLINHASLTLSTLTVTSAHPEDSSFYICSARAGGHEQFFGPGTRLTVLE
Regarding B1, the “EC50 (target peptide titration, IFNγ release)” value is roughly 1 nM.
